Experimental findings from publication PMC6959235, “A mosquito salivary protein promotes flavivirus transmission by activation of autophagy” (Nature Communications, 2020) are described below.

This experiment addresses recombinant LRPPRC protein purified from 293F cells (human, UniProt P42704 60-1394). Description: ELISA. The following applies: both partners purified.

B1: Aedes aegypti venom allergen-1 (AaVA-1), recombinant, from Drosophila S2 cells (natural protein)
chain: NYCDQSLCRRGPHVACNAPTQFGSACGQEPKFVKMDARMKNLLLKKHNELRAEIACGKHGFPQAARMPTLVWDDELAHIASFNARKCIFAHDKCRNTREFKFAGQNLAITAFAGYNFQAADRAENFTQEWFNEHKDCPKSYVDSYPMSHSGPQIGHFTQMVNDRAWKMGCSMVHYKNGRVIKYYLVCNYSMTNMIEEPIYTRGSAGSKCQTGQNPQYRGLCSPREKVRSESYRG
notes: also called AAEL000793; purified AaVA-1
For B1, the binding result is recorded as “binds”.
